# Test results taken from article PMC3722578 (FEBS Open Bio, 2013).
# B1: PKD1 domain from Vibrio cholerae metalloprotease PrtV (residues Glu755-Asn839) (domain or fragment)
# chain: GAMENIAPVARFELKVEGLSVMSQNTSSDSDGNIVSYLWDFGNGQTSTEAAPTWSYTKAGSYSVTLTVTDDKGDSDTHQQTIKVDTPN
# Molecular target: the molecule itself
# Assay: SEC
protein,measurement,value
B1,stoichiometry N,2
